The results in this text go back to patent US20070098681A1.

Several values for one entry are separate records, joined by “and”; a condition that tells them apart may be missing. Identical values can stand only once.

Assay [1] concerns the target DR5-IgG (human). Description: method not stated; against zinc-bound Apo-2L.
Assay [2] concerns the target DR5-IgG (human). Put plainly: phage bound and eluted from DR5-IgG coated well against blank well; phage grown at 37 C.

With “Apo-2L after removal of the bound metal by dialysis against chelating agents (ligand)”, in the assay with DR5-IgG (human) [1], the fold decrease in DR5 affinity was 7 fold. Take “wild-type Apo2L/TRAIL (residues 96-281) displayed on M13 phage (ligand)”: in the assay with DR5-IgG (human) [2], the Enrichment (ratio (DR5-IgG well / blank well)) is 1.5 and 3.3.
